Data on two molecules can be found in patent US20200057058A1 (MIT, published 2020).

The target of assay [1] is T1, streptavidin (UniProt P22629 37-163, limits assumed).
T1 construct: It was used without a stated label in the sandwich assays; also called SA
Kind of assay: fluorescent binding assay: Alexa Fluor 647-labeled streptavidin applied to the thin film; the sheet names the film 4xSP25k, the legend 4xSP30k. The protocol:
(§1) The binding function of rcSso7d.SA oligomer-PNIPAM thin films was measured using fluorescently-labeled monomeric streptavidin (mSA2) and fluorescently-labeled streptavidin (SA). Details for the expression, purification, and fluorescent labeling of mSA2 are provided below. Samples were prepared by serial dilution of SA or mSA2 in PBS (pH 7.4), human urine (diluted to 50% v/v in PBS, pH 7.4), or blood serum (obtained as the supernatant by centrifuging whole blood at 1500×g for 10 minutes, then diluted to 50% v/v in PBS, pH 7.4). 0.5 μL drops of solutions containing serially diluted fluorescent mSA2 and fluorescent SA samples in PBS (pH 7.4) were gently applied to the surface of each bioconjugate thin film. […] After 1 hour, films were thoroughly rinsed with water for 10 seconds (a time determined to be sufficient to remove unbound molecules from the film, see FIG. 33, dried under filtered airflow, and immediately analyzed for fluorescent signal. Fluorescence microscopy images were acquired at 4× magnification using a Cy5 filter set and exposure time of 5000 ms on an Olympus IX-81 inverted fluorescence microscope with an AxioCam HRC CCD camera. Fluorescent intensity was calculated using ImageJ software⁶⁷ by determining the average fluorescent signal in a rectangular area of the fluorescent image free of defects and occupying no less than half of the full sample application area.

Assay [2] deals with monomeric streptavidin variant mSA2. As to the kind of experiment: fluorescent binding assay, labeled mSA2 in PBS on thin film; quadratic curve fit. The protocol: (§2) The binding function of rcSso7d.SA oligomer-PNIPAM thin films was measured using fluorescently-labeled monomeric streptavidin (mSA2) and fluorescently-labeled streptavidin (SA). Details for the expression, purification, and fluorescent labeling of mSA2 are provided below. Samples were prepared by serial dilution of SA or mSA2 in PBS (pH 7.4), human urine (diluted to 50% v/v in PBS, pH 7.4), or blood serum (obtained as the supernatant by centrifuging whole blood at 1500×g for 10 minutes, then diluted to 50% v/v in PBS, pH 7.4). 0.5 μL drops of solutions containing serially diluted fluorescent mSA2 and fluorescent SA samples in PBS (pH 7.4) were gently applied to the surface of each bioconjugate thin film. Films were incubated in a sealed chamber saturated with water vapor at room temperature to prevent to prevent drying of the applied fluorescent samples. After 1 hour, films were thoroughly rinsed with water for 10 seconds (a time determined to be sufficient to remove unbound molecules from the film, see FIG. 33, dried under filtered airflow, and immediately analyzed for fluorescent signal. Fluorescence microscopy images were acquired at 4× magnification using a Cy5 filter set and exposure time of 5000 ms on an Olympus IX-81 inverted fluorescence microscope with an AxioCam HRC CCD camera. Fluorescent intensity was calculated using ImageJ software⁶⁷ by determining the average fluorescent signal in a rectangular area of the fluorescent image free of defects and occupying no less than half of the full sample application area.
Binding assays were performed by adding serially diluted solutions of fluorescently-labeled mSA2 to thin films of each studied conjugate (FIG. 6A). To maintain consistent transport properties between samples, each oligomer was conjugated to the same previously-synthesized 25 kDa PNIPAM sample. Analyte bound to thin films was quantified using fluorescence microscopy, and binding curves were fit to the collected mean fluorescent intensity (MFI) data using the following equation: […]

Assay [3] shares this target. As to the kind of experiment: fluorescent binding assay, labeled mSA2; signal three standard deviations above blank. How it is done: as §2
Oligomerization of rcSso7d.SA also brings about a decrease in biosensor limit of detection (LOD). […] While all thin films display improvements up to threefold in LOD over the monolayer, the trend in LOD with respect to degree of oligomerization is non-monotonic. The primary factor that is expected to affect LOD in the studied biosensors is number of binding sites, as more binding sites enable a greater number of analyte molecules to be captured and shifts analyte-receptor equilibrium in favor of binding events.

The target is the same in assay [4]. Kind of assay: calculated from [P]T of the mSA2 binding curve fit and film thickness. Details: Calculated Density (density of binding sites within a cross-sectional area of the film): unit not given here. The protocol:
To determine the density of binding proteins within a single plane of each thin film, the concentration of accessible binding sites throughout the entire film—taken directly from the binding assay curve fits (Table 4)—was multiplied by the corresponding film thickness. When accounting for differences in film thickness, the density of oligomerized rcSso7d.SA proteins capable of binding mSA2 is found to increase […] with degree of oligomerization (Table 5). This calculated density decreases, though, between the 1×SP25k and 2×SP25k thin films, indicating a lower density of accessible binding sites in the protein domains of the oligomerized rcSso7d.SA conjugate film. The total number of predicted binding sites within each thin film assuming complete accessibility should be proportional to the […] of rcSso7d. SA in the conjugate with PNIPAM. Reasonable estimates for relative values of the predicted number of sites can thus be obtained by normalizing the weight fraction of rcSso7d. SA in each conjugate by the corresponding weight fraction in 1×SP25k. Comparing these predicted relative number of binding sites to the calculated values (FIG. 6C), all oligomeric rcSso7d.SA conjugates are found to contain fewer proteins capable of binding mSA2 than predicted. It is likely that this effect results from a combination of steric blocking of binding sites by bound mSA2 molecules as well as a lack of the free volume required to incorporate mSA2 molecules into the protein nanodomains at high degrees of binding. Despite the lower than expected binding capacity of the conjugate thin films, these biosensors contain approximately […] the quantity of accessible binding sites compared to rcSso7d.SA monolayers on a volumetric basis (Table 4). Recognizing that each plane (and a monolayer) of rcSso7d.SA proteins is roughly 1-2 nm thick,⁸⁰ the studied thin films can be determined to contain approximately 100 more planes of protein than a monolayer.

Assay [5] shares this target. Kind of assay: fluorescent binding assay, labeled mSA2 on thin film. How it is done:
as §1, with “area. […]” for “area.”

T1 sequence (P22629 37-163 limits assumed): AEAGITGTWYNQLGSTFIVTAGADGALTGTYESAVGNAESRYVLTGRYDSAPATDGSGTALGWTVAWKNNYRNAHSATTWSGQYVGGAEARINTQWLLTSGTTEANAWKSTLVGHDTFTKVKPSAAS

B1: 4xSP25k thin film (4x rcSso7d.SA-PNIPAM conjugate, 25 kDa PNIPAM) (designed binder)
chain: MGSSHHHHHHSSGLVPRGSHMCATVKFTYQGEEKQVDISKIKIVARDGQYIDFKYDEGGGAYGYGWVSEKDAPKELLQMLEKQGGGGSGGGGSMATVKFTYQGEEKQVDISKIKIVARDGQYIDFKYDEGGGAYGYGWVSEKDAPKELLQMLEKQGGGGSGGGGSMATVKFTYQGEEKQVDISKIKIVARDGQYIDFKYDEGGGAYGYGWVSEKDAPKELLQMLEKQGGGGSGGGGSMATVKFTYQGEEKQVDISKIKIVARDGQYIDFKYDESGGAYGYGWVSEKDAPKELLQMLEKQ
modifications: maleimide end-functionalized PNIPAM (25 kDa) on the N-terminal Cys; film lightly crosslinked with glutaraldehyde
notes: Four rcSso7d.SA repeats joined by (G4S)2 linkers in one chain
For B1, in assay [1], the binding result is “binds”. Moreover, in assay [2], the “[P]T (total concentration of accessible binding sites)” value was found to be 3.7 µM. Besides, in assay [3], the “limit of detection (LOD)” value stood at 140 nM. In assay [4], the “Calculated Density (density of binding sites within a cross-sectional area of the film)” value is 62 and the “Calculated Ratio (film thickness x [P]T relative to the 1xSP25k thin film)” value was 1.31.

B2: 3xSP25k thin film (3x rcSso7d.SA-PNIPAM conjugate, PNIPAM Mn 24.9 kDa) (designed binder)
chain: MGSSHHHHHHSSGLVPRGSHMCATVKFTYQGEEKQVDISKIKIVARDGQYIDFKYDEGGGAYGYGWVSEKDAPKELLQMLEKQGGGGSGGGGSMATVKFTYQGEEKQVDISKIKIVARDGQYIDFKYDEGGGAYGYGWVSEKDAPKELLQMLEKQGGGGSGGGGSMATVKFTYQGEEKQVDISKIKIVARDGQYIDFKYDEGGGAYGYGWVSEKDAPKELLQMLEKQGG
modifications: maleimide end-functionalized PNIPAM (Mn 24.9 kDa) on the N-terminal Cys; film lightly crosslinked with glutaraldehyde
notes: Three rcSso7d.SA repeats joined by (G4S)2 linkers in one chain; also called conjugate of the trimer
On to B2, for which the “[P]T (total concentration of accessible binding sites)” value in assay [2] worked out at 3.9 µM. Moreover, in assay [5], the “fluorescent signal relative to rcSso7d.SA monolayer” value was > 10 fold. For the same molecule, the “limit of detection (LOD)” value in assay [3] came out at 110 nM. Also, in assay [4], the “Calculated Density (density of binding sites within a cross-sectional area of the film)” value was 59 and the “Calculated Ratio (film thickness x [P]T relative to the 1xSP25k thin film)” value was 1.24.
